This note sets out measurements from PMC9133088.

Series [1] is described as follows: immunoprecipitation and phospho-S720 immunoblot. Conditions: glycan lost.
Series [2] is described as follows: lysosomal fractionation, glucose starvation. Conditions: glycan lost; control: control siRNA.
Series [3] can be described thus: lysosomal fractionation, leucine added without glucose. As to conditions: glycan lost; control: overexpressed WT LARS1.
Series [4] in a line: RagD GTP hydrolysis, GTP-agarose pulldown, glucose-starved cells. Conditions: glycan lost; control: overexpressed WT LARS1.
Series [5] in a line: LARS1 immunoprecipitation, immunoblot, knock-in cells. As to conditions: glycan lost; control: WT SW620 cells, glucose starvation.
A short description of series [6]: lysosomal fractionation, knock-in cells, glucose starvation. Conditions: glycan lost; control: WT SW620 cells.
Series [7] in a line: near-UV circular dichroism. Conditions: glycan lost; control: WT LARS1, same OGT1 condition.
The nature of series [8]: in vitro GTPase assay, GTP-agarose pulldown. Conditions: glycan lost; control: unmodified WT LARS1 with ATP and leucine.
[9] abbreviates: control: control siRNA, glucose starvation.

With “leucyl-tRNA synthetase 1 (LARS1): GFPT1 siRNA”, in series [1] (setting [9]), the “other: S720 phosphorylation by ULK1” value is listed as “decreases”. In series [2], the localisation_or_trafficking result is “increases”.
In the case of “leucyl-tRNA synthetase 1 (LARS1): OGT1 siRNA”, in series [1] (setting [9]), the “other: S720 phosphorylation by ULK1” value is “decreases”.
As for “leucyl-tRNA synthetase 1 (LARS1): S1042A”, the “other: S720 phosphorylation by ULK1” value in series [1] (control: overexpressed WT LARS1, glucose starvation) is listed as “abolishes”. Further, in series [3], the localisation_or_trafficking result was “increases”. In series [4], the enzymatic_activity result was “increases”.
Take “leucyl-tRNA synthetase 1 (LARS1): S1042A knock-in”: the “other: S720 phosphorylation by ULK1” value in series [5] is “decreases”. Moreover, the localisation_or_trafficking entry in series [6] is reported as “increases”.
Regarding “leucyl-tRNA synthetase 1 (LARS1): S1042A with OGT1”, in series [7], the structure_or_conformation result is “changes”.
Same read-out and setting: to “leucyl-tRNA synthetase 1 (LARS1): S1042A without OGT1” belongs “no change”.
Consider “leucyl-tRNA synthetase 1 (LARS1): S1042A ± OGT1”, for which the enzymatic_activity entry in series [8] was “no change”.
